What was measured:
[1] = system: ADA against the potentially immunogenic therapeutic agent
Method: Administration of a basiliximab loading dose on Day 0 of the NHP toxicology study is followed on Day 1 by administration of a basiliximab maintenance dose and the potentially immunogenic therapeutic agent. Basiliximab is dosed approximately every 10 days to maintain a serum concentration at which CD25 is almost completely bound by basiliximab (about 200 ug/mL). The therapeutic agent is dosed at the proscribed interval and dose.
Administration of a nanocarrier encapsulated rapamycin (NER) loading dose on Day −2, −1, or 0 of the NHP toxicology study is followed on Day 0 by administration the potentially immunogenic therapeutic agent. NER and the therapeutic agent are then co-administered at the proscribed dose and intervals of every 1-4 weeks for as many as 12 weeks, following which the immunogenic therapeutic agent may be administered without NER.
Basiliximab is dosed approximately every 10 days to maintain a serum concentration at which CD25 is almost completely bound by basiliximab (about 200 ug/mL). Rapamycin is dosed daily or every other day during the course of basiliximab administration to maintain a rapamycin trough level within the range of 4-12 ng/mL. Following this treatment regimen, the immunogenic therapeutic agent may be administered without the immunosuppressants.

[2] = system: ADA against the potentially immunogenic therapeutic agent; experiment: NHP preclinical pharmacokinetic study: ADA development with immunosuppressant plus immunogenic therapeutic agent; assay type: in vivo
Method: Administration of a basiliximab loading dose on Day 0 of the NHP preclinical pharmacokinetic study is followed on Day 1 by administration of a basiliximab maintenance dose and the potentially immunogenic therapeutic agent. Basiliximab is dosed approximately every 10 days to maintain a serum concentration at which CD25 is almost completely bound by basiliximab (about 200 ug/mL). The therapeutic agent is dosed at the proscribed interval and dose.
Administration of a nanocarrier encapsulated rapamycin (NER) loading dose on Day −2, −1, or 0 of the NHP preclinical pharmacokinetic study is followed on Day 0 by administration the potentially immunogenic therapeutic agent. NER and the therapeutic agent are then co-administered at the proscribed dose and intervals of every 1-4 weeks for as many as 12 weeks, following which the immunogenic therapeutic agent may be administered without NER.
Basiliximab is dosed approximately every 10 days to maintain a serum concentration at which CD25 is almost completely bound by basiliximab (about 200 ug/mL). Rapamycin is dosed daily or every other day during the course of basiliximab administration to maintain a rapamycin trough level within the range of 4-12 ng/mL. Following this treatment regimen, the immunogenic therapeutic agent may be administered without the immunosuppressant combination.

## basiliximab
[1]; NHP toxicology study, immunosuppressant plus therapeutic agent, compared with therapeutic agent alone
  development of ADA: prevents the development of ADA
[1]; in vivo
  immune mediated drug induced liver injury (DILI) in the group given immunosuppressant and therapeutic agent: develop immune mediated drug induced liver injury (DILI)
[2]; NHP given immunosuppressant and potentially immunogenic therapeutic agent, compared with control group given therapeutic agent alone
  development of ADA in the immunosuppressant treated group: no ADA develops or the level of ADA is sufficiently low
[2]; NHP given immunosuppressant and therapeutic agent, altered in the control group due to ADA
  pharmacokinetic parameters of the therapeutic agent in the immunosuppressant treated group: unaltered
